Measurements from PMC10636607 (Cell Reports, 2023).

Key:
[1] = target: His6-tagged SARS-CoV-2 receptor-binding domain (SARS-CoV-2, UniProt P0DTC2); assay: BLI; details: both partners purified
[2] = target: biotinylated SARS-CoV-2 fusion peptide (SARS-CoV-2, biotin on the N-terminus); assay: BLI; details: both partners purified

Binder | fold change in KD against the wild-type Fab [1] [fold] | binding result [2]
GAR12 Fab VL D50K (Fab, V domains shown) VH: EVQLVQSGGGLVQPGGSLRLSCAASGFTFSSYAMSWVRQAPGKGLEWVLSISGSGGSTYYADSVKGRFTISIDNSKKTVYLQMNSLRAEDTAVYYCAKSGEQQLVQAEYFHHWGQGTLVTVSS VL: DIQMTQSPSTLSASVGDRVTITCRASQSIGRWLAWYQQKPGKAPKLLIYKASSLESGVPSRFSGSGFGTEFTLTISSLQPDDFATYYCQQCDSLLTFGGGTKLEIK | 44 | –
COV44-62 Fab VH R50W (Fab, V domains shown) VH: QMQLMQSGAEVKKPGASVTVSCKASGDTFSDYRIHWVRQAPGQGLEWMGWMNPKSGDTNFAQKFQGRVTMTRDMSINTAYMTLSGLTFDDTALYYCASLLIVGGFDPLDDFEVWGQGTMVTISS VL: QSALTQPPSASGSPGQSVTISCSGTSSDVGGYNFVSWYQHHPGKAPKILIYEVTKRPSGVPDRFSGSKSGNTASLTVSGLQAEDEADYYCSSYGGTNNLLFGGGTKLTVL | – | no binding (tested: 33 nM, 100 nM, and 300 nM)
